Measured values published in the supplement of paper PMC12042874.
± gives the uncertainty stated by the source.

Assay: amyloid nucleation score (Sup35N fusion, yeast selection) (log enrichment); library NNK2; higher = more nucleation; inactive = no reads after selection
Method in brief: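 Psi-negative yeast expressed Sup35N fused to peptides of 20 random codons. They were induced 24 hours with 100 μM copper sulfate, grown 7 days at 30°C without adenine and uracil, and their plasmid inserts from input and output were Illumina-sequenced. The nucleation score is the DiMSum log enrichment of output over input reads, centred on the mode score of non-aggregating sequences. Sequences with under 100 input reads were excluded.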
Substance LYREDGNMSDH has an amyloid nucleation score of 1.82 ± 0.28.
ICSPVQSAPSRAEKND showed an amyloid nucleation score of -0.297 ± 0.45.
With PCGNPLQRYS the amyloid nucleation score was 1.62 ± 0.4.
Substance TICDTLGYLTRSWYLSYESS has an amyloid nucleation score of -0.545 ± 0.32.
For RKGSNDYPFWPAVVWHPLPA, the amyloid nucleation score was 0.753 ± 0.4.
Substance FGNDPSGCVNQAYYHRCFLD has an amyloid nucleation score of -0.959 ± 0.78.
With SGIRDTLVSWGPRGMG the amyloid nucleation score was -0.309 ± 0.45.
YYRRNKIWSVSQQWGGIRSR showed an amyloid nucleation score of 0.596 ± 0.62.
With KLRGIPYRF the amyloid nucleation score was “inactive”.
Work on SGTDHNRMYF yielded an amyloid nucleation score of 0.312 ± 0.57.
In the case of SCCYVLKRDFKLMNNVPSGR, the amyloid nucleation score is reported as -0.033 ± 0.2.
Work on SQIRGESSYYCLPSFSLLFF yielded an amyloid nucleation score of 6.215 ± 0.057.
For MDCECG, the amyloid nucleation score was 1.03 ± 0.3.
For YSSFDISLYFGNHHWSLMTR, the amyloid nucleation score was 4.11 ± 0.078.
For PVFVLNVLLVILDPFLGLSN, the amyloid nucleation score was -0.237 ± 0.34.
WWGGINSVLVTDEWLVRLGK gave an amyloid nucleation score of -0.166 ± 0.19.
Substance LISLTPRSSRPSNERNSSTL has an amyloid nucleation score of 1.63 ± 0.47.
With KCSTVYASGFWLPWTVVPGR the amyloid nucleation score was 0.418 ± 0.26.
Substance VDFRFMMHPSEEWMSNHLPR has an amyloid nucleation score of 1.14 ± 0.24.
For SHHHSQTRKIDPSTDFSQSS, the amyloid nucleation score was -0.047 ± 1.1.
With TCSRERGRRWFGICASYSCE the amyloid nucleation score was 0.629 ± 0.47.
LFVPGLNR gave an amyloid nucleation score of 0.047 ± 0.31.
With SLPSRYWVSLFCTSLLW the amyloid nucleation score was 0.743 ± 0.81.
Work on INFTYMGVMIFLSLLRQTWG yielded an amyloid nucleation score of -0.311 ± 0.56.
With DSGRA the amyloid nucleation score was -0.351 ± 0.63.
For FVFELGKWHCELFWYELCLS, the amyloid nucleation score was “inactive”.
For DRAWQFPGDRAINGVRSAFF, the amyloid nucleation score was -1.04 ± 0.63.
In the case of APANVRWLNFSGLDSNGCPY, the amyloid nucleation score is reported as “inactive”.
KGCVDHVFIYGIN gave an amyloid nucleation score of -1.44 ± 0.41.
Work on TWVNYIIRKVRLVTIRLYVY yielded an amyloid nucleation score of -0.011 ± 0.65.
In the case of WDRTTDSSFQVRKYQSENFL, the amyloid nucleation score is reported as 0.092 ± 1.1.
Substance MLKWWLFTRSSSPGRHCRLD has an amyloid nucleation score of -0.471 ± 0.54.
With SLRYSMRPMAFRFKHPLAPT the amyloid nucleation score was -0.166 ± 0.28.
CTIKIGWYWL showed an amyloid nucleation score of 7.512 ± 0.07.
With SALSGRYAKTLRNGHGLYQE the amyloid nucleation score was “inactive”.
Substance SNVSGCMELFNWVGYFPVSP has an amyloid nucleation score of -0.733 ± 0.62.
Substance SRNLTVNK has an amyloid nucleation score of -0.072 ± 0.79.
Work on NNVRMYLSFRAIVY yielded an amyloid nucleation score of -1.19 ± 0.76.
Work on LGNIGRTFMYHS yielded an amyloid nucleation score of 1.09 ± 0.27.
Work on YYSVGNAGL yielded an amyloid nucleation score of -1.3 ± 0.39.
For IAVATSGP, the amyloid nucleation score was 0.84 ± 0.46.
For EQHIDSAMENFSDHDIVMLG, the amyloid nucleation score was 4.76 ± 0.064.
In the case of VLTMHPVRMFLDFFDDMMCY, the amyloid nucleation score is reported as “inactive”.
With YVHMMSMKPHQLINCLRLFY the amyloid nucleation score was -1.2 ± 0.74.
RFKLEYHEEG gave an amyloid nucleation score of 2.81 ± 0.19.
IYYGGYVNRLNREAFRGCKL gave an amyloid nucleation score of -1.49 ± 0.49.
In the case of LNRISYHTYSILPNVTIMKS, the amyloid nucleation score is reported as 0.498 ± 0.54.
KFASVYWLGLFPLLMPTVVS showed an amyloid nucleation score of 0.89 ± 0.43.
LTGTMVMIVNPLDCVLGVER showed an amyloid nucleation score of 5.01 ± 0.085.
Work on GLGAWFEI yielded an amyloid nucleation score of 0.485 ± 0.29.
LVQRWGWSKPLIAGI gave an amyloid nucleation score of -0.271 ± 0.49.
In the case of NNVGWVLHDGRFFSVSHYIA, the amyloid nucleation score is reported as 0.294 ± 1.1.
Work on SNEKVAQSLFAKEREPLRGN yielded an amyloid nucleation score of 2.35 ± 0.12.
Work on CRNQGVCDAGQSLLN yielded an amyloid nucleation score of 0.897 ± 0.29.
NMFSLWVYKLAMFWIY showed an amyloid nucleation score of -0.701 ± 1.1.
For IMVVEQYLYYYSKVCTFFSV, the amyloid nucleation score was “inactive”.
In the case of FAVFPLVPGRGPGLFENNRW, the amyloid nucleation score is reported as -0.104 ± 0.74.
Work on LTGCGDFSLLSIYFSRMHRG yielded an amyloid nucleation score of 5.2 ± 0.078.
Work on MSRWTKIGNFDNIPSIPLVV yielded an amyloid nucleation score of -0.228 ± 0.36.
FAYLPSTVVGVSHSTLGPLI gave an amyloid nucleation score of 0.221 ± 0.43.
VYLFGGIRFDR showed an amyloid nucleation score of 4.04 ± 0.049.
For RFRFGAVNLV, the amyloid nucleation score was 0.849 ± 0.49.
QTMVCTTISAPKSGSAWERS gave an amyloid nucleation score of 0.109 ± 0.37.
In the case of SVYDPAYVLNMNTLSTSSNL, the amyloid nucleation score is reported as 0.451 ± 0.33.
Substance ISYTVDQRRFTSLVRCLYDH has an amyloid nucleation score of 0.322 ± 0.57.
WIAGLCPVDMADL gave an amyloid nucleation score of 0.644 ± 0.23.
QLTRTVIYCLLFSAFHFYIS showed an amyloid nucleation score of 2.39 ± 0.22.
With YKISDRVALISYPNFAIVWT the amyloid nucleation score was -2.25 ± 0.78.
SLDNWFTDSRAGVGLVFS showed an amyloid nucleation score of -0.277 ± 1.
Work on TTLRPLYSTWGSQMVFPGLC yielded an amyloid nucleation score of 0.409 ± 0.8.
For HLFTSCYYYMPLYLLSQRQY, the amyloid nucleation score was 6.095 ± 0.044.
TYGWSLFERKLNPRGCWFPN gave an amyloid nucleation score of -0.082 ± 0.63.
For LCVIIMFLIIYYNEEFVWSQ, the amyloid nucleation score was “inactive”.
With LKNYSGLMPVI the amyloid nucleation score was 3.41 ± 0.068.
With TFVGSFEILAGNVLCVNKTK the amyloid nucleation score was 6.031 ± 0.048.
For AFPLRTVISGN, the amyloid nucleation score was 0.484 ± 0.8.
With LLATSWSVLEDLYAGNDLYD the amyloid nucleation score was “inactive”.
For AGYIVIALSRCCTDSRPNRV, the amyloid nucleation score was “inactive”.
Substance LIYGDASETLC has an amyloid nucleation score of 0.227 ± 0.43.
With LCSWLEMGFIIRFAGIVRLD the amyloid nucleation score was -0.292 ± 0.54.
Work on RAKTNSVGDLQYGIHVPMKG yielded an amyloid nucleation score of -0.043 ± 0.37.
In the case of CSNGLYPNTVGRLEYS, the amyloid nucleation score is reported as -1.05 ± 0.39.
With WVIVRLIITTDVQCNYVFLP the amyloid nucleation score was 0.248 ± 0.38.
Work on IRCRVRK yielded an amyloid nucleation score of 0.484 ± 0.4.
VDYASGGARGFGMVLRAFLE gave an amyloid nucleation score of 0.132 ± 0.42.
